# Measurements published in the nanobody polyreactivity screen of Harvey et al. (2022).
# Assay: yeast display, Sf9 membrane polyspecificity reagent, FACS + sequencing; frameworks hold sequencing errors
# Procedure, shortened: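 After 36–48 hours of galactose induction, yeast (Saccharomyces cerevisiae BJ5465) displaying a synthetic nanobody library were stained at 4 °C for 1 hour with 10% biotinylated, detergent-solubilized Sf9 membrane reagent. Streptavidin microbeads enriched the stained cells before FACS sorting into low and high (top ~1%) gates on anti-HA and streptavidin fluorescence. Each clone's polyreactivity label reflects its gate of origin.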
row,Sequence,polyreactivity (PSR sort gate)
1,QVQLVESGGGLVQAGGSLRLSCAASGSTFYRNAMGWYRQAPGKEREFVAAISFRGGGTYADSVKGRFTISRDNAKNTVYFQMNILKPEDTAVYYCAADLLSYRGRYEYWGQGTQVTVSS,low polyreactivity
2,QVQLVESGGGLVQAGGSLRLSCAASGSTFYRNAMGWYRQAPGKERELVAGISYGGGSTYYADSVKGRFTISRDNAKNTVYLQMNSLKPEDTAVYYCNAVWVKRHYYYWGQGTQVTVSS,low polyreactivity
3,QVQLVESGGGLVQAGGSLRLSCAASGSTFYRNAMGWYRQAPGKERELVAGISYGGGSTYYADSVKGRFTISRDNAKNTVYLQMNSLKPEDTAVYYCYAVWVKRHYYYWGQGTQVTVSS,low polyreactivity
4,QVQLVESGGGLVQAGGSLRLSCAASGSTFYRNAMGWYRQAPGKERELVAGITSGVTTYYADSVKGRFTISRDNAKNTVYLQMNSLKPEDSAVYYCAVYWRGRGAFTYGSWGQGTQVTVSS,high polyreactivity
5,QVQLVESGGGLVQAGGSLRLSCAASGSTFYRNSMGWYRQAPGKEREFVAAISFRGGGTYADSVKGRFTISRDNAKNTVYLQMNSLKPEDSAVYYCAADHQSYRRRYEYWGQGTQVTVSS,low polyreactivity
6,QVQLVESGGGLVQAGGSLRLSCAASGSTFYRYAMGGYRQAPGKERELVASITRGGGRTHYADSVKGRFTISRDNAKNTVYLQMNSLKPEDTAVYYCAAVTPVSYRLYGYWGQGTQVTVSS,high polyreactivity
7,QVQLVESGGGLVQAGGSLRLSCAASGSTFYRYAMGWYRQAPGKERELVAAINTGGSTNYADSVKGRFTISRDNAKNTVYLQMNSLKPEDTAVYYCAARFQYYRKYDYWGQGTQGTVSS,low polyreactivity
8,QVQLVESGGGLVQAGGSLRLSCAASGSTFYRYAMGWYRQAPGKERELVATISKRGGSTYYADSVKGRFTISRDNAKYTVYLQMNSLKPEDTAVYYCNVRLEYRYYRGDYWGQGTQVTVSS,high polyreactivity
9,QVQLVESGGGLVQAGGSLRLSCAASGSTFYRYAMGWYRQAPGKERELVATITNSGGSTYYADSVKGRFTISRDNAKYTVYLQMNSLKPEDTAVYYCARVRSRNTGYYYWGQGTQVTVSS,high polyreactivity
10,QVQLVESGGGLVQAGGSLRLSCAASGSTFYRYTMGWYRQAPGKEREFVATITGRGGSTYADSVKGRFTISRDNAKNTVYLQMNSLKPEDTAVYYCAKRQTYREYDYWGQGTQVTVSS,low polyreactivity
11,QVQLVESGGGLVQAGGSLRLSCAASGSTFYSNAMGWYRQAPGKERELVAGIDTSDGSTNYADSVKGRFTISRDNAKNTVYLQMNSLKPEDTAVYYCAADYTQPGFVSYDYWGQGTQVTVSS,low polyreactivity
12,QVQLVESGGGLVQAGGSLRLSCAASGSTFYSNSMGWYRQAPGKERELVAAIDWGGGSTYYADSVKGRFTISRDNETNTVYLQMNSLKPEDTAVYYCAKKYYKVHKFDYWGQGNQVTVSS,low polyreactivity
13,QVQLVESGGGLVQAGGSLRLSCAASGSTFYSNVMGWYRQAPGKERELLAAISQSGGRTFYADSVKGRFTISRDNAKITVYLQMNSLKPEDSAVYYSNASSGNRYGPRYDYWGQGTQVTVSS,high polyreactivity
14,QVQLVESGGGLVQAGGSLRLSCAASGSTFYSNVMGWYRQAPGKERELVAAISQSGGRTFYADSVKGRFTISRDNAKNTVYLQMNSLKPEDTAVYYCNNVRAQPRNPYDYWGQGTQVTVSS,high polyreactivity
15,QVQLVESGGGLVQAGGSLRLSCAASGSTFYSYAMGWYRQAPGKERELVAAISWDGGLTYYADSVKGRFTISRDNAKNTVYLQMNSLKPEDNAVYYCAAAYPTYRHYYWGQGTQVTVSS,low polyreactivity
16,QVQLVESGGGLVQAGGSLRLSCAASGSTFYSYAMGWYRQAPGKERELVAAISWNGGSTYYADSVKGRFTISRDNAKNTVYLQMNRLKPEDTAVYYCAALRYVHGYDYWGQGTQVTVSS,high polyreactivity
17,QVQLVESGGGLVQAGGSLRLSCAASGSTFYSYAMGWYRQAPGKERELVAAISWSGGSTYYADSVKGRFTISRDNAKNTVYLQMNSLKPEDTAVYYCAATRTRGYDGYGMYYWGQGTQVTVSS,high polyreactivity
18,QVQLVESGGGLVQAGGSLRLSCAASGSTFYSYAMGWYRQAPGKERELVAAITIISGSTYYADSVKGRFTISRDNAKNTVYLQMNSLKPEDTAVYYCAADSYYSFVPLDEYWGQGTQVTVSS,high polyreactivity
19,QVQLVESGGGLVQAGGSLRLSCAASGSTFYSYAMGWYRQAPGKEREMVAAITRGGSTNYADSVKGRFTISRDNAKNTVYLQMNSLKPDDTAVYYCAKSKYTGTAFGGKKTWFNYWGQGTQVTVSS,high polyreactivity
20,QVQLVESGGGLVQAGGSLRLSCAASGSTFYSYTMGWYRQAPGKERELVASITRGGSTYYADSVKGRFTISRDNAKNTVYLQLNSLKPEDTAVYYCAARGRYSIARYDYWGQGTQVTVSS,high polyreactivity
21,QVQLVESGGGLVQAGGSLRLSCAASGSTFYTHAMGWYRQAPGKERELVAAISASVGSTYYADSVKGRFTISRDNAKNTVYLQMNSLKPEDTAVYYCAADVWASRRYDYWGQGTQVTVSS,low polyreactivity
22,QVQLVESGGGLVQAGGSLRLSCAASGSTFYTNAMGWYRQAPGKERELVAAISGSGGSTYYADSVKGRFTISRDNAKNTVYLQMNSLKPEDTAVYYCAARSRYYDTRFDYWGQGTQVTVSS,low polyreactivity
23,QVQLVESGGGLVQAGGSLRLSCAASGSTFYTYALGWYRQAPGKERELDAAITYNGGSTYYADSVKGRFTISRDNAKNTVYLQMNSLKPEDTAVYYCARTIYLGSRVNGYWRYDYWGQGTQVTVSS,high polyreactivity
24,QVQLVESGGGLVQAGGSLRLSCAASGSTFYTYAMGWYRQAPGKECELVAAISNRGGSTRYADSVKGRFTISRDNAKNTVYLQMNSLKPEDTAVYYCAAQRIRRGWYGYWGPGTQVTVSS,high polyreactivity
25,QVQLVESGGGLVQAGGSLRLSCAASGSTFYTYAMGWYRQAPGKERELVAAISSGGGTTYADSVKGRFTISRDNAKNTVYLQMNSLKPEDTAVYYCAAVTRDYRNDRRRQRYYYWGQGTQVTVSS,high polyreactivity
26,QVQLVESGGGLVQAGGSLRLSCAASGSTFYTYAMGWYRQAPGKERELVAAISWSGGSTYYADSVKGRFTISRDNAKNTVYLQMNSLKPEDTAVYYCAADRPYAGRYWKGYHSALYDYWGQGTQVTVSS,low polyreactivity
27,QVQLVESGGGLVQAGGSLRLSCAASGSTFYTYAMGWYRQAPGKERELVAAISYRGGSTYYADSVKGRFTISRDNAKNTVYLQMNSLKPEDTAVYYCNVDGVVVGTKRGGYDYWGQGTQVTVSS,low polyreactivity
28,QVQLVESGGGLVQAGGSLRLSCAASGSTFYTYVMGGYRQAPGKERELVAAITRSGGITYYADSVKGRFTISRDNAKYTVYLQMNSLKPEDTAVYYCAKDDQTASGFDYWGQGTQVTVSS,low polyreactivity
29,QVQLVESGGGLVQAGGSLRLSCAASGSTFYTYVMGWYRQAPGKERELVAAISSGGGNTYYADTVTGRFTISRDHGKNTVYLQMNSLKPEDTAVYYCAAETFRWSDYDYWGQGTQVTVSS,high polyreactivity
30,QVQLVESGGGLVQAGGSLRLSCAASGSTFYVNAMGWYRQAPGKERELVASISSSSGSTYYADSVKGRFTISRDNAKNTVYLQMNSLKPEDTAVYYCAAEVGIFIWFDYWGQGTQVTVSS,low polyreactivity
